Experimental data taken from patent US20140199327A1, “METHODS OF PROMOTING DIFFERENTIATION” (Genentech, Inc., priority 2011, published 2014).

Molecular target: T1, USP1-Flag (wild-type human USP1 with in-frame C-terminal Flag epitope) (human, UniProt O94782 1-785)
T1 construct: Synthesised human USP1 cDNA in pRK2001, expressed in 293T cells; also called USP1 wild-type; WT
T1 sequence: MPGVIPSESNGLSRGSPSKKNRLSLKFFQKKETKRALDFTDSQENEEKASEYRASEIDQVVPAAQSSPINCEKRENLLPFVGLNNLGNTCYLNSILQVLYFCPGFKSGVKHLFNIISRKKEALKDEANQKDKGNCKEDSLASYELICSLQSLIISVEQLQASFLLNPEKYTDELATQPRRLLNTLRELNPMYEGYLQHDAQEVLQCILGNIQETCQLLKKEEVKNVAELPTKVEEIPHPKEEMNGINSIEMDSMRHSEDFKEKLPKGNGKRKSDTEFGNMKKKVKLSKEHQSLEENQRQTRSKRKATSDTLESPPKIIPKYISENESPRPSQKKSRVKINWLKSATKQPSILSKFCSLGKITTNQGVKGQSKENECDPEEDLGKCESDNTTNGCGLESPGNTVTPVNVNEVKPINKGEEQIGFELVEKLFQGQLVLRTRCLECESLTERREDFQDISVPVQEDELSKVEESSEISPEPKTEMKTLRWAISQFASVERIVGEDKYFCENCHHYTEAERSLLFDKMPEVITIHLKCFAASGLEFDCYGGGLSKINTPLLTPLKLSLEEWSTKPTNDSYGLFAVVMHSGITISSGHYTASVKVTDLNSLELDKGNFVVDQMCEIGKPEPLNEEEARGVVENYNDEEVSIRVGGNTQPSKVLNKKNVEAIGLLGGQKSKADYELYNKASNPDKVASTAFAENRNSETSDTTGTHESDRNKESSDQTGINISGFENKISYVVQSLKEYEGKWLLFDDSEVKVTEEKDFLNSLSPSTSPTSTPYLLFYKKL
Assay: Flag immunoprecipitation of DUBs from 293T cells cotransfected with ID2, MG-132 treated; blot for ID2 (FIG. 2B)
Protocol: FIG. 2. […] (A) Western blot (WB) analysis of 293T transfected with Flag-tagged deubiquitinases (DUBs) or an empty vector (−). Where indicated, cells were treated with […] MG-132 for 4 hr. (B) Flag-tagged DUBs were immunoprecipitated (IP) from 293T cells cotransfected with ID2 and treated with […] MG-132 for 6 hr.

- binding result: binds
B1: ID2 (co-transfected / co-expressed in 293T cells) (other)
chain: MKAFSPVRSVRKNSLSDHSLGISRSKTPVDDPMSLLYNMNDCYSKLKELVPSIPQNKKVSKMEILQHVIDYILDLQIALDSHPTIVSLHHQRPGQNQASRTPLTTLNTDISILSLQASEFPSELMSNDSKALCG
notes: ID2 was amplified from Jurkat-derived cDNA; The methods describe only a C-terminal Flag version in pRK2001
